{"source": "patent EP2213302A2", "about": "(Genentech, Inc., dated 2010)", "binders": {"B1": {"name": "4H6.17.8 anti-DR4 monoclonal antibody (murine) (antibody, V domains shown)", "VH": "QVQLKESGPGLVAPSQSLSITCTVSGFSLTSYGVHWVRQPPGKGLEWLGVIWAVGSTNYNSALMSRLSISKDNSKSQVFLKMNSLQTDDTAMYYCAREGEFDYYGSSLLSYHSMNFWGQGTSVTVS", "VL": "DIQMTQTTSSLSASLGDRVTISCRASQDISNYLNWYQRKPDGTVKLLIYYTSRLHSGVPSRFSGSGSGTDYSLTISNLEQEDIATYFCQQGNTLPFTFGSATKLELT", "notes": "Murine IgG1 from hybridoma ATCC HB-12455; only the variable domains apply here; the listing has Xaa at 20)"}}, "molecular_target": "T1, DR4 ECD immunoadhesin (human, UniProt O00220 24-218)", "T1 construct": "also called DR4-IgG; DR4 ECD-IgG; not shown: CH1, hinge and Fc region of human immunoglobulin G1 heavy chain", "T1 sequence (O00220 other isoform, or with tags, fused parts or gaps)": "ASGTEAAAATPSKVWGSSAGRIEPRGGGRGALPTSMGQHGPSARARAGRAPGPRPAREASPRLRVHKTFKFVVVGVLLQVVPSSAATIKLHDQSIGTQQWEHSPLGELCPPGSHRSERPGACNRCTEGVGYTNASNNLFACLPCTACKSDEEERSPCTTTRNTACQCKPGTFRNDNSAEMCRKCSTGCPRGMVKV", "assay": "KinExA equilibrium, antibody in solution with DR4-IgG, DR4-IgG beads"}
{"binder": "B1", "values": [{"measurement": "Kd", "result": 5, "unit": "pM"}]}
